Data from publication PMC8807840.

Assays:
[1] = biological target: A3Gctd-CBE (A3Gctd-nCas9-2xUGI)
[2] = biological target: A3A-CBE (A3A-nCas9-2xUGI)
[3] = biological target: A3Bctd-CBE (A3Bctd-nCas9-2xUGI)

B1: Ade1 (EBV-BORF2) (natural protein)
chain: MATTSHVEHELLSKLIDELKVKANSDPEADVLAGRLLHRLKAESVTHTVAEYLEVFSDKFYDEEFFQMHRDELETRVSAFAQSPAYERIVSSGYLSALRYYDTYLYVGRSGKQESVQHFYMRLAGFCASTTCLYAGLRAALQRARPEIESDMEVFDYYFEHLTSQTVCCSTPFMRFAGVENSTLASCILTTPDLSSEWDVTQALYRHLGRYLFQRAGVGVGVTGAGQDGKHISLLMRMINSHVEYHNYGCKRPVSVAAYMEPWHSQIFKFLETKLPENHERCPGIFTGLFVPELFFKLFRDTPWSDWYLFDPKDAGDLERLYGEEFEREYYRLVTAGKFCGRVSIKSLMFSIVNCAVKAGSPFILLKEACNAHFWRDLQGEAMNAANLCAEVLQPSRKSVATCNLANICLPRCLVNAPLAVRAQRADTQGDELLLALPRLSVTLPGEGAVGDGFSLARLRDATQCATFVVACSILQGSPTYDSRDMASMGLGVQGLADVFADLGWQYTDPPSRSLNKEIFEHMYFTALCTSSLIGLHTRKIFPGFKQSKYAGGWFHWHDWAGTDLSIPREIWSRLSERIVRDGLFNSQFIALMPTSGCAQVTGCSDAFYPFYANASTKVTNKEEALRPNRSFWRHVRLDDREALNLVGGRVSCLPEALRQRYLRFQTAFDYNQEDLIQMSRDRAPFVDQSQSHSLFLREEDAARASTLANLLVRSYELGLKTIMYYCRIEKAADLGVMECKASAALSVPREEQNERSPAEQMPPRPMEPAQVAGPVDIMSKGPGEGPGGWCVPGGLEVCYKYRQLFSEDDLLETDGFTERACESCQ
B1 gave a fold inhibition of base editing by Ade1 at the FANCF site, HEK293T cells (Fig. 2e) (A3Bctd-L1A CBE chimera) of 1.47 fold, a fold inhibition of base editing by Ade1 at the FANCF site, HEK293T cells (Fig. 2e) (A3Bctd-L7G CBE chimera) of 1.06 fold and a fold inhibition of base editing by Ade1 at the FANCF site, HEK293T cells (Fig. 2e) [1] of 0.96 fold. For the same binder, the fold inhibition of base editing by Ade1 at the FANCF site, HEK293T cells (Fig. 2e) (A3Gctd-L1B CBE chimera) was 5.67 fold, the fold inhibition of base editing by Ade1 at the FANCF site, HEK293T cells (Fig. 2e) (A3A-L1B CBE chimera) was 3.26 fold and the fold inhibition of base editing by Ade1 at the FANCF site, HEK293T cells (Fig. 2e) [2] was 1.06 fold. For the same binder, the fold inhibition of base editing by Ade1 at the FANCF site, HEK293T cells (Fig. 2e) (A3Gctd-L1L7B CBE chimera) was 5.66 fold, the fold inhibition of base editing by Ade1 at the FANCF site, HEK293T cells (Fig. 2e) (A3Gctd-L7B CBE chimera) was 1.32 fold and the fold inhibition of base editing by Ade1 at the FANCF site, HEK293T cells (Fig. 2e) [3] was 5.2 fold.
